Test results as given in US20250043302A1, “MUTATED HYDROXYPHENYLPYRUVATE DIOXYGENASE POLYPEPTIDE, AND CODING GENE AND USE THEREOF” (BEIJING DABEINONG BIOTECHNOLOGY CO., LTD., priority 2021, published 2025).

Experiments:
Format in all cases: in vivo
[1] = system: Arabidopsis thaliana T1 plants; assay: Mesotrione tolerance of transgenic Arabidopsis thaliana T1 plants (spray, bleached leaf area grade, damage score); set-up: Scores: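 damage score 0-100 computed as Σ(N×S)/(T×M)×100 over grades 0-3 with higher meaning more damage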; conditions: Table 12; for Classification and statistics of the grade of pesticide damage Grade 0: number of plants at grade 0; for Classification and statistics of the grade of pesticide damage Grade 1: number of plants at grade 1; for Classification and statistics of the grade of pesticide damage Grade 2: number of plants at grade 2; for Classification and statistics of the grade of pesticide damage Grade 3: number of plants at grade 3; for Scores: pesticide damage score
Summary of the method: (§1)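 Damage graded 0–3 from the proportion of bleached leaf area 7 days after spraying. Plants were glufosinate-selected T1 lines, 18 days after sowing, plus vector and wild-type controls. Rates: mesotrione 52.5–420, isoxaflutole 35–280, topramezone 25–200 g ai/ha, with water (0×).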

[2] = system: Arabidopsis thaliana T1 plants; assay: Isoxaflutole tolerance of transgenic Arabidopsis thaliana T1 plants (spray, bleached leaf area grade, damage score); conditions: Table 11; for Classification and statistics of the grade of pesticide damage Grade 0: number of plants at grade 0; for Classification and statistics of the grade of pesticide damage Grade 1: number of plants at grade 1; for Classification and statistics of the grade of pesticide damage Grade 2: number of plants at grade 2; for Classification and statistics of the grade of pesticide damage Grade 3: number of plants at grade 3; for Scores: pesticide damage score;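 for Scores: Weighted damage index from 0 to 100 where higher means more damage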
Summary of the method: as §1

[3] = system: Arabidopsis thaliana T1 plants; assay: Topramezone tolerance of transgenic Arabidopsis thaliana T1 plants (spray, bleached leaf area grade, damage score); conditions: Table 10; for Classification and statistics of the grade of pesticide damage Grade 0: number of plants at grade 0; for Classification and statistics of the grade of pesticide damage Grade 1: number of plants at grade 1; for Classification and statistics of the grade of pesticide damage Grade 2: number of plants at grade 2; for Classification and statistics of the grade of pesticide damage Grade 3: number of plants at grade 3; for Scores: pesticide damage score
Summary of the method: as §1

B1: HPPDm-3-02: nucleotide sequence encoding Avena sativa HPPD with A106G+F372A+F383W; vector DBN11784 (nucleic acid)
DNA: ATGCCACCTACTCCAGCTACAGCTACTGGTGCTGCTGCTGCTGCCGTTACTCCTGAGCACGCTGCCAGGTCATTCCCCAGGGTGGTTCGCGTGAACCCCAGATCTGATAGGTTCCCAGTTCTGAGCTTCCACCATGTTGAGCTGTGGTGCGCTGATGCTGCTTCTGCTGCTGGCAGGTTCTCTTTCGCTCTTGGTGCTCCACTCGCTGCTAGATCTGATCTGTCTACAGGAAATAGCGCTCATGCCTCACTCCTGCTTCGCTCAGGTGCTTTGGCCTTCCTCTTCACCGCTCCATATGCTCCCCCACCTCAGGAGGGTGCTACTGCTGCTGCTACAGCCTCCATTCCAAGCTTCTCAGCTGATGCCGCTAGAACCTTCGCTGCTGCTCATGGACTTGCCGTGAGGTCTGTTGGTGTTCGCGTGGCTGATGCTGCTGAGGCTTTCAGAGTTTCCGTTGCCGGCGGAGCTAGGCCAGCTTTCGCTCCTGCTGATTTGGGACATGGTTTCGGCCTGGCTGAGGTTGAGCTTTACGGTGACGTGGTTCTCCGCTTCGTGTCTTACCCAGATGAGACTGACCTGCCTTTCCTTCCCGGCTTCGAGAGAGTTTCCTCTCCTGGTGCCGTGGATTACGGCCTGACAAGGTTCGACCACGTGGTTGGAAACGTTCCCGAGATGGCTCCAGTGATCGATTACATGAAGGGCTTCCTTGGATTCCATGAGTTCGCCGAGTTCACTGCTGAGGACGTGGGAACCACTGAGTCCGGTTTGAACTCTGTGGTTCTCGCCAACAATTCTGAGGCTGTTTTGCTCCCTCTGAATGAGCCTGTGCATGGAACCAAGAGGAGAAGCCAGATTCAAACTTACCTGGAGTACCACGGTGGCCCTGGAGTTCAGCATATCGCCCTTGCTTCTAATGATGTGTTGCGCACACTCAGAGAGATGCGCGCCAGAACCCCCATGGGAGGTTTCGAGTTCATGGCCCCACCACAGGCTAAGTACTACGAGGGCGTTAGAAGGATTGCTGGAGACGTGTTGAGCGAGGAGCAGATCAAGGAGTGCCAAGAGCTGGGTGTTCTTGTGGATAGGGATGACCAGGGCGTTCTGCTTCAAATTGCCACTAAGCCAGTGGGCGACCGCCCTACATTCTGGCTTGAGATGATTCAAAGAATCGGCTGCATGGAGAAGGATGAGGTTGGACAGGAGTACCAAAAGGGCGGATGCGGTGGCTTCGGAAAGGGTAACTTCAGCGAGTTGTTCAAGTCAATCGAGGACTACGAGAAGAGCCTCGAGGTGAAGCAGTCAGTGGTTGCCCAAAAGTCCTGA
modifications: HPPDm-3-02 Nucleotide Sequence
notes: vector DBN11784
With B1 the Resistance evaluation ([1]; mesotrione 210 g ai/ha (2×)) was “Highly resistant”, the “Classification and statistics of the grade of pesticide damage Grade 0” value ([1]; mesotrione 210 g ai/ha (2×)) was 16 and the “Classification and statistics of the grade of pesticide damage Grade 1” value ([1]; mesotrione 210 g ai/ha (2×)) was 0. For the same molecule, the “Classification and statistics of the grade of pesticide damage Grade 2” value ([1]; mesotrione 210 g ai/ha (2×)) was 0, the “Classification and statistics of the grade of pesticide damage Grade 3” value ([1]; mesotrione 210 g ai/ha (2×)) was 0 and the Scores ([1]; mesotrione 210 g ai/ha (2×)) was 0. For the same molecule, the Resistance evaluation ([1]; mesotrione 420 g ai/ha (4×)) was “Highly resistant”, the “Classification and statistics of the grade of pesticide damage Grade 0” value ([1]; mesotrione 420 g ai/ha (4×)) was 14 and the “Classification and statistics of the grade of pesticide damage Grade 1” value ([1]; mesotrione 420 g ai/ha (4×)) was 2. The “Classification and statistics of the grade of pesticide damage Grade 2” value ([1]; mesotrione 420 g ai/ha (4×)) was 0, the “Classification and statistics of the grade of pesticide damage Grade 3” value ([1]; mesotrione 420 g ai/ha (4×)) was 0 and the Scores ([1]; mesotrione 420 g ai/ha (4×)) was 4. The Resistance evaluation ([2]; isoxaflutole 140 g ai/ha (2×)) was “Highly resistant”, the “Classification and statistics of the grade of pesticide damage Grade 0” value ([2]; isoxaflutole 140 g ai/ha (2×)) was 16 and the “Classification and statistics of the grade of pesticide damage Grade 1” value ([2]; isoxaflutole 140 g ai/ha (2×)) was 0. For the same molecule, the “Classification and statistics of the grade of pesticide damage Grade 2” value ([2]; isoxaflutole 140 g ai/ha (2×)) was 0, the “Classification and statistics of the grade of pesticide damage Grade 3” value ([2]; isoxaflutole 140 g ai/ha (2×)) was 0 and the Scores ([2]; isoxaflutole 140 g ai/ha (2×)) was 0. For the same molecule, the Resistance evaluation ([2]; isoxaflutole 280 g ai/ha (4×)) was “Highly resistant”, the “Classification and statistics of the grade of pesticide damage Grade 0” value ([2]; isoxaflutole 280 g ai/ha (4×)) was 12 and the “Classification and statistics of the grade of pesticide damage Grade 1” value ([2]; isoxaflutole 280 g ai/ha (4×)) was 4. The “Classification and statistics of the grade of pesticide damage Grade 2” value ([2]; isoxaflutole 280 g ai/ha (4×)) was 0, the “Classification and statistics of the grade of pesticide damage Grade 3” value ([2]; isoxaflutole 280 g ai/ha (4×)) was 0 and the Scores ([2]; isoxaflutole 280 g ai/ha (4×)) was 8. For the same molecule, the Resistance evaluation ([3]; topramezone 100 g ai/ha (4×)) was “Highly resistant”, the “Classification and statistics of the grade of pesticide damage Grade 0” value ([3]; topramezone 100 g ai/ha (4×)) was 16 and the “Classification and statistics of the grade of pesticide damage Grade 1” value ([3]; topramezone 100 g ai/ha (4×)) was 0. For the same molecule, the “Classification and statistics of the grade of pesticide damage Grade 2” value ([3]; topramezone 100 g ai/ha (4×)) was 0, the “Classification and statistics of the grade of pesticide damage Grade 3” value ([3]; topramezone 100 g ai/ha (4×)) was 0 and the Scores ([3]; topramezone 100 g ai/ha (4×)) was 0. The Resistance evaluation ([3]; topramezone 200 g ai/ha (8×)) was “Highly resistant”, the “Classification and statistics of the grade of pesticide damage Grade 0” value ([3]; topramezone 200 g ai/ha (8×)) was 16 and the “Classification and statistics of the grade of pesticide damage Grade 1” value ([3]; topramezone 200 g ai/ha (8×)) was 0. For the same molecule, the “Classification and statistics of the grade of pesticide damage Grade 2” value ([3]; topramezone 200 g ai/ha (8×)) was 0, the “Classification and statistics of the grade of pesticide damage Grade 3” value ([3]; topramezone 200 g ai/ha (8×)) was 0 and the Scores ([3]; topramezone 200 g ai/ha (8×)) was 0.
